Experimental data published in IntAct's records for PubMed 31515488.

B1: Coiled-coil domain-containing protein 74A (Homo sapiens), Q96AQ1 (parent)
chain: MSGAGVAAGTRPPSSPTPGSRRRRQRPSVGVQSLRPQSPQLRQSDPQKRNLDLEKSLQFLQQQHSEMLAKLHEEIEHLKRENKDLHYKLIMNQTSQKKDGPSGNHLSRASAPLGARWVCINGVWVEPGGPSPARLKEGSSRTHRPGGKRGRLAGGSADTVRSPADSLSMSSFQSVKSISNSGKARPQPGSFNKQDSKADVSQKADLEEEPLLHNSKLDKVPGVQGQARKEKAEASNAGAACMGNSQHQGRQMGAGAHPPMILPLPLRKPTTLRQCEVLIRELWNTNLLQTQELRHLKSLLEGSQRPQAAPEEASFPRDQEATHFPKVSTKSLSKKCLSPPVAERAILPALKQTPKNNFAERQKRLQAMQKRRLHRSVL
B2: Keratin, type I cytoskeletal 13 (Homo sapiens), P13646 (parent)
chain: MSLRLQSSSASYGGGFGGGSCQLGGGRGVSTCSTRFVSGGSAGGYGGGVSCGFGGGAGSGFGGGYGGGLGGGYGGGLGGGFGGGFAGGFVDFGACDGGLLTGNEKITMQNLNDRLASYLEKVRALEEANADLEVKIRDWHLKQSPASPERDYSPYYKTIEELRDKILTATIENNRVILEIDNARLAADDFRLKYENELALRQSVEADINGLRRVLDELTLSKTDLEMQIESLNEELAYMKKNHEEEMKEFSNQVVGQVNVEMDATPGIDLTRVLAEMREQYEAMAERNRRDAEEWFHTKSAELNKEVSTNTAMIQTSKTEITELRRTLQGLEIELQSQLSMKAGLENTVAETECRYALQLQQIQGLISSIEAQLSELRSEMECQNQEYKMLLDIKTRLEQEIATYRSLLEGQDAKMIGFPSSAGSVSPRSTSVTTTSSASVTTTSNASGRRTSDVRRP
B3: EGF-containing fibulin-like extracellular matrix protein 1 (Homo sapiens), Q12805 (parent)
chain: MLKALFLTMLTLALVKSQDTEETITYTQCTDGYEWDPVRQQCKDIDECDIVPDACKGGMKCVNHYGGYLCLPKTAQIIVNNEQPQQETQPAEGTSGATTGVVAASSMATSGVLPGGGFVASAAAVAGPEMQTGRNNFVIRRNPADPQRIPSNPSHRIQCAAGYEQSEHNVCQDIDECTAGTHNCRADQVCINLRGSFACQCPPGYQKRGEQCVDIDECTIPPYCHQRCVNTPGSFYCQCSPGFQLAANNYTCVDINECDASNQCAQQCYNILGSFICQCNQGYELSSDRLNCEDIDECRTSSYLCQYQCVNEPGKFSCMCPQGYQVVRSRTCQDINECETTNECREDEMCWNYHGGFRCYPRNPCQDPYILTPENRCVCPVSNAMCRELPQSIVYKYMSIRSDRSVPSDIFQIQATTIYANTINTFRIKSGNENGEFYLRQTSPVSAMLVLVKSLSGPREHIVDLEMLTVSSIGTFRTSSVLRLTIIVGPFSF
B4: Endothelial transcription factor GATA-2 (Homo sapiens), P23769 (parent)
chain: MEVAPEQPRWMAHPAVLNAQHPDSHHPGLAHNYMEPAQLLPPDEVDVFFNHLDSQGNPYYANPAHARARVSYSPAHARLTGGQMCRPHLLHSPGLPWLDGGKAALSAAAAHHHNPWTVSPFSKTPLHPSAAGGPGGPLSVYPGAGGGSGGGSGSSVASLTPTAAHSGSHLFGFPPTPPKEVSPDPSTTGAASPASSSAGGSAARGEDKDGVKYQVSLTESMKMESGSPLRPGLATMGTQPATHHPIPTYPSYVPAAAHDYSSGLFHPGGFLGGPASSFTPKQRSKARSCSEGRECVNCGATATPLWRRDGTGHYLCNACGLYHKMNGQNRPLIKPKRRLSAARRAGTCCANCQTTTTTLWRRNANGDPVCNACGLYYKLHNVNRPLTMKKEGIQTRNRKMSNKSKKSKKGAECFEELSKCMQEKSSPFSAAALAGHMAPVGHLPPFSHSGHILPTPTPIHPSSSLSFGHPHPSSMVTAMG
B5: ADP-ribosylation factor-like protein 2-binding protein (Homo sapiens), Q9Y2Y0 (parent)
chain: MDALEGESFALSFSSASDAEFDAVVGYLEDIIMDDEFQLLQRNFMDKYYLEFEDTEENKLIYTPIFNEYISLVEKYIEEQLLQRIPEFNMAAFTTTLQHHKDEVAGDIFDMLLTFTDFLAFKEMFLDYRAEKEGRGLDLSSGLVVTSLCKSSSLPASQNNLRH

Variants of: B1
Conditions: with mtus2_human MTUS2, Q5JR59
Chain of mtus2_human MTUS2, Q5JR59 (Q5JR59 whole entry): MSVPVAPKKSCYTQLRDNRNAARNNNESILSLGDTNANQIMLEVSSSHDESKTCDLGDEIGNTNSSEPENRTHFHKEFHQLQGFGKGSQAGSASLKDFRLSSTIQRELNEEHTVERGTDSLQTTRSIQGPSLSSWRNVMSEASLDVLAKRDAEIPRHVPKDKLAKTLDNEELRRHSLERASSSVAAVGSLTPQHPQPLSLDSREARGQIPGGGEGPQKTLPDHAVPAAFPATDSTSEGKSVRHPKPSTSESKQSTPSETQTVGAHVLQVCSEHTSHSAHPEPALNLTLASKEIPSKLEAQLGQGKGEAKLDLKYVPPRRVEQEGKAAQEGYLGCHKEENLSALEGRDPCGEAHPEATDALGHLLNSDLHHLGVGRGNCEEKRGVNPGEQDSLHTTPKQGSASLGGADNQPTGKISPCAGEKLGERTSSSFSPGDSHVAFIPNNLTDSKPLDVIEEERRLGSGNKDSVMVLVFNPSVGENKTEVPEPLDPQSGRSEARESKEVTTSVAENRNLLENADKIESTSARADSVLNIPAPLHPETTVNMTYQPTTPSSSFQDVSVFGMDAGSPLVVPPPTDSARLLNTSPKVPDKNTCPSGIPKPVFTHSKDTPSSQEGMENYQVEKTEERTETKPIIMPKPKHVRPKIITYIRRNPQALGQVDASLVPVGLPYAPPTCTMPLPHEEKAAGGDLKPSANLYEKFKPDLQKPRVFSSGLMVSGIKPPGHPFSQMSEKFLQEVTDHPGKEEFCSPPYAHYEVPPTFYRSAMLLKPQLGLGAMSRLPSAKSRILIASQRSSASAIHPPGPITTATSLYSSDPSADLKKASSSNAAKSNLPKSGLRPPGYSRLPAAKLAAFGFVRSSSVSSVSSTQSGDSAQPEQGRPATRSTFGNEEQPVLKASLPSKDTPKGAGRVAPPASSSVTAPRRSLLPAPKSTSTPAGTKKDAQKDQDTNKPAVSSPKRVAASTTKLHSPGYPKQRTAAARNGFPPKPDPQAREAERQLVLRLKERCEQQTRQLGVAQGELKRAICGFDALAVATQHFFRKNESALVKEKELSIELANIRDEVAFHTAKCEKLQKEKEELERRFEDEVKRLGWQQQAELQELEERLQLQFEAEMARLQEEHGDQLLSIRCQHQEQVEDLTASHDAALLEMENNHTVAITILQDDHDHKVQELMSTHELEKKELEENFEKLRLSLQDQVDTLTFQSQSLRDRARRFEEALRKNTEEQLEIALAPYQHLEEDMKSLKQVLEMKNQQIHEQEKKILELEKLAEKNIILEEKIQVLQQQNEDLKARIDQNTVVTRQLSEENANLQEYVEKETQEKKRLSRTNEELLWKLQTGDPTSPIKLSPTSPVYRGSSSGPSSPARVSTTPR

Row | effect of a mutation on the interaction | Variant
1 | with no effect | G302R

Variants of: B2
Conditions: with k22e_human KRT2, P35908
Chain of k22e_human KRT2, P35908 (P35908 whole entry): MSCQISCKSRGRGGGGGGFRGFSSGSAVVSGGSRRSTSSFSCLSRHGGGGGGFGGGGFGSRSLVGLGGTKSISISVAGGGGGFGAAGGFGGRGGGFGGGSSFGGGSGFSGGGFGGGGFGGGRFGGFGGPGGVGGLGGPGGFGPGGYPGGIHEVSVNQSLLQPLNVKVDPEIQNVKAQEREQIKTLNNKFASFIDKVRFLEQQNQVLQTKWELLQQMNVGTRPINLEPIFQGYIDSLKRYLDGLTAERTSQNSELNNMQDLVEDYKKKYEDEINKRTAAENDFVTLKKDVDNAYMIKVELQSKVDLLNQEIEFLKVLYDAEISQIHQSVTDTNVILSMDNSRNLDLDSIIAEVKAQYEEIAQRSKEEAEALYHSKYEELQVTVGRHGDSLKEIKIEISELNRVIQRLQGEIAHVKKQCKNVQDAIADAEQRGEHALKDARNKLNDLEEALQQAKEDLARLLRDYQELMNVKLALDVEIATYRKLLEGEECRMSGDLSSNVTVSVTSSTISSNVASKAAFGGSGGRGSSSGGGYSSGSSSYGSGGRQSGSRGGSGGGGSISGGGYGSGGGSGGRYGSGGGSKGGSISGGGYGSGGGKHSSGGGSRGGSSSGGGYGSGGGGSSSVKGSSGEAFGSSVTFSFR

Row | effect of a mutation on the interaction | Variant
2 | with no effect | MSLRLQSSSASYGGGFGGGSCQLGGGRGVSTCSTRFVSGGSAGGYGGGVSCGFGGGAGSGFGGGYGGGLGGGYGGGLGGGFGGGFAGGFVDFGACDGGLLTGNEKITMQNLNDRLASYLEKVRALEEANADLEVKIRDWHLKQSPASPERDYSPYYKTIEELRDKILTATIENNRVILEIDNARLAADDFRLKYENELALRQSVEADINGLRRVLDELTLSKTDLEMQIESLNEELAYMKKNHEEEMKEFSNQVVGQVNVEMDATPGIDLTRVLAEMREQYEAMAERNRRDAEEWFHTKSAELNKEVSTNTAMIQTSKTEITELRRTLQGLEIELQSQLSMKAGLENTVAETECHYALQLQQIQGLISSIEAQLSELRSEMECQNQEYKMLLDIKTRLEQEIATYRSLLEGQDAKMIGFPSSAGSVSPRSTSVTTTSSASVTTTSNASGRRTSDVRRP [R355H]

Variants of: B2
Conditions: with k2c4_human KRT4, P19013
Chain of k2c4_human KRT4, P19013 (P19013 whole entry): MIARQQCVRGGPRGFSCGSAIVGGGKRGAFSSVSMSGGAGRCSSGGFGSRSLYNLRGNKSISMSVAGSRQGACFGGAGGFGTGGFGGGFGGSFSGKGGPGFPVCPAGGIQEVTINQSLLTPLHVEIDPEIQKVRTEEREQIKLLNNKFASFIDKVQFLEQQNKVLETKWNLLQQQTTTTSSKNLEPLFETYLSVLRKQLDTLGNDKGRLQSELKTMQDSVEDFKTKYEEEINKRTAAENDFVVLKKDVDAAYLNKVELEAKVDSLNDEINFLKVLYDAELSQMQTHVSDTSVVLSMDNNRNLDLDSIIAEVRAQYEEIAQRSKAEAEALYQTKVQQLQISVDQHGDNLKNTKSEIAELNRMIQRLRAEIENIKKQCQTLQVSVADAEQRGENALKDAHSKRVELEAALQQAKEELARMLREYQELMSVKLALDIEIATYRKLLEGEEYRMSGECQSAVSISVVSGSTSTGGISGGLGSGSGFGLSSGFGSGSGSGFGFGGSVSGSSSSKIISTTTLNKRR

Row | effect of a mutation on the interaction | Variant
3 | with no effect | MSLRLQSSSASYGGGFGGGSCQLGGGRGVSTCSTRFVSGGSAGGYGGGVSCGFGGGAGSGFGGGYGGGLGGGYGGGLGGGFGGGFAGGFVDFGACDGGLLTGNEKITMQNLNDRLASYLEKVRALEEANADLEVKIRDWHLKQSPASPERDYSPYYKTIEELRDKILTATIENNRVILEIDNARLAADDFRLKYENELALRQSVEADINGLRRVLDELTLSKTDLEMQIESLNEELAYMKKNHEEEMKEFSNQVVGQVNVEMDATPGIDLTRVLAEMREQYEAMAERNRRDAEEWFHTKSAELNKEVSTNTAMIQTSKTEITELRRTLQGLEIELQSQLSMKAGLENTVAETECHYALQLQQIQGLISSIEAQLSELRSEMECQNQEYKMLLDIKTRLEQEIATYRSLLEGQDAKMIGFPSSAGSVSPRSTSVTTTSSASVTTTSNASGRRTSDVRRP [R355H]

Variants of: B2
Conditions: with KRT6A

Row | effect of a mutation on the interaction | Variant
4 | with no effect | MSLRLQSSSASYGGGFGGGSCQLGGGRGVSTCSTRFVSGGSAGGYGGGVSCGFGGGAGSGFGGGYGGGLGGGYGGGLGGGFGGGFAGGFVDFGACDGGLLTGNEKITMQNLNDRLASYLEKVRALEEANADLEVKIRDWHLKQSPASPERDYSPYYKTIEELRDKILTATIENNRVILEIDNARLAADDFRLKYENELALRQSVEADINGLRRVLDELTLSKTDLEMQIESLNEELAYMKKNHEEEMKEFSNQVVGQVNVEMDATPGIDLTRVLAEMREQYEAMAERNRRDAEEWFHTKSAELNKEVSTNTAMIQTSKTEITELRRTLQGLEIELQSQLSMKAGLENTVAETECHYALQLQQIQGLISSIEAQLSELRSEMECQNQEYKMLLDIKTRLEQEIATYRSLLEGQDAKMIGFPSSAGSVSPRSTSVTTTSSASVTTTSNASGRRTSDVRRP [R355H]

Variants of: B2
Conditions: with ccnc_human CCNC

Row | effect of a mutation on the interaction | Variant
5 | with no effect | MSLRLQSSSASYGGGFGGGSCQLGGGRGVSTCSTRFVSGGSAGGYGGGVSCGFGGGAGSGFGGGYGGGLGGGYGGGLGGGFGGGFAGGFVDFGACDGGLLTGNEKITMQNLNDRLASYLEKVRALEEANADLEVKIRDWHLKQSPASPERDYSPYYKTIEELRDKILTATIENNRVILEIDNARLAADDFRLKYENELALRQSVEADINGLRRVLDELTLSKTDLEMQIESLNEELAYMKKNHEEEMKEFSNQVVGQVNVEMDATPGIDLTRVLAEMREQYEAMAERNRRDAEEWFHTKSAELNKEVSTNTAMIQTSKTEITELRRTLQGLEIELQSQLSMKAGLENTVAETECHYALQLQQIQGLISSIEAQLSELRSEMECQNQEYKMLLDIKTRLEQEIATYRSLLEGQDAKMIGFPSSAGSVSPRSTSVTTTSSASVTTTSNASGRRTSDVRRP [R355H]

Variants of: B3
Conditions: with sgta_human SGTA

Row | effect of a mutation on the interaction | Variant
6 | with no effect | MLKALFLTMLTLALVKSQDTEETITYTQCTDGYEWDPVRQQCKDIDECAIVPDACKGGMKCVNHYGGYLCLPKTAQIIVNNEQPQQETQPAEGTSGATTGVVAASSMATSGVLPGGGFVASAAAVAGPEMQTGRNNFVIRRNPADPQRIPSNPSHRIQCAAGYEQSEHNVCQDIDECTAGTHNCRADQVCINLRGSFACQCPPGYQKRGEQCVDIDECTIPPYCHQRCVNTPGSFYCQCSPGFQLAANNYTCVDINECDASNQCAQQCYNILGSFICQCNQGYELSSDRLNCEDIDECRTSSYLCQYQCVNEPGKFSCMCPQGYQVVRSRTCQDINECETTNECREDEMCWNYHGGFRCYPRNPCQDPYILTPENRCVCPVSNAMCRELPQSIVYKYMSIRSDRSVPSDIFQIQATTIYANTINTFRIKSGNENGEFYLRQTSPVSAMLVLVKSLSGPREHIVDLEMLTVSSIGTFRTSSVLRLTIIVGPFSF [D49A]

Variants of: B3
Conditions: with ric8a_human RIC8A

Row | effect of a mutation on the interaction | Variant
7 | with no effect | MLKALFLTMLTLALVKSQDTEETITYTQCTDGYEWDPVRQQCKDIDECAIVPDACKGGMKCVNHYGGYLCLPKTAQIIVNNEQPQQETQPAEGTSGATTGVVAASSMATSGVLPGGGFVASAAAVAGPEMQTGRNNFVIRRNPADPQRIPSNPSHRIQCAAGYEQSEHNVCQDIDECTAGTHNCRADQVCINLRGSFACQCPPGYQKRGEQCVDIDECTIPPYCHQRCVNTPGSFYCQCSPGFQLAANNYTCVDINECDASNQCAQQCYNILGSFICQCNQGYELSSDRLNCEDIDECRTSSYLCQYQCVNEPGKFSCMCPQGYQVVRSRTCQDINECETTNECREDEMCWNYHGGFRCYPRNPCQDPYILTPENRCVCPVSNAMCRELPQSIVYKYMSIRSDRSVPSDIFQIQATTIYANTINTFRIKSGNENGEFYLRQTSPVSAMLVLVKSLSGPREHIVDLEMLTVSSIGTFRTSSVLRLTIIVGPFSF [D49A]

Variants of: B4
Conditions: with fhl3_human FHL3, Q13643
Chain of fhl3_human FHL3, Q13643 (Q13643 whole entry): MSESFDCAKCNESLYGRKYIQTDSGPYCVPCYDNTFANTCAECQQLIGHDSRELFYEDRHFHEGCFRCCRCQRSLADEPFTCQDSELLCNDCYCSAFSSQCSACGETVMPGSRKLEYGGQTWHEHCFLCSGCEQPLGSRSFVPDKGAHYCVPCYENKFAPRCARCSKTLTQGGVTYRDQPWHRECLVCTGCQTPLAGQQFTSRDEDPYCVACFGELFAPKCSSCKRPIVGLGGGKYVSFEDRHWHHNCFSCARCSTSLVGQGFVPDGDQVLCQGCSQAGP

Row | effect of a mutation on the interaction | Variant
8 | with no effect | A164T

Variants of: B4
Conditions: with psa3_human PSMA3, P25788
Chain of psa3_human PSMA3, P25788 (P25788 whole entry): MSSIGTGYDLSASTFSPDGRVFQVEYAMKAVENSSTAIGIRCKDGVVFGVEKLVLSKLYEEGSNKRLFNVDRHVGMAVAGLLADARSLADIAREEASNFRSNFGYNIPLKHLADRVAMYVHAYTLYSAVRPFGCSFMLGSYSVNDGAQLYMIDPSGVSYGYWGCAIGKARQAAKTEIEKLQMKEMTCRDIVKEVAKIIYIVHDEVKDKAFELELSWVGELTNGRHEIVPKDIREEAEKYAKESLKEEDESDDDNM

Row | effect of a mutation on the interaction | Variant
9 | with no effect | A164T

Variants of: B4
Conditions: with tri23_human TRIM23, P36406
Chain of tri23_human TRIM23, P36406 (P36406 whole entry): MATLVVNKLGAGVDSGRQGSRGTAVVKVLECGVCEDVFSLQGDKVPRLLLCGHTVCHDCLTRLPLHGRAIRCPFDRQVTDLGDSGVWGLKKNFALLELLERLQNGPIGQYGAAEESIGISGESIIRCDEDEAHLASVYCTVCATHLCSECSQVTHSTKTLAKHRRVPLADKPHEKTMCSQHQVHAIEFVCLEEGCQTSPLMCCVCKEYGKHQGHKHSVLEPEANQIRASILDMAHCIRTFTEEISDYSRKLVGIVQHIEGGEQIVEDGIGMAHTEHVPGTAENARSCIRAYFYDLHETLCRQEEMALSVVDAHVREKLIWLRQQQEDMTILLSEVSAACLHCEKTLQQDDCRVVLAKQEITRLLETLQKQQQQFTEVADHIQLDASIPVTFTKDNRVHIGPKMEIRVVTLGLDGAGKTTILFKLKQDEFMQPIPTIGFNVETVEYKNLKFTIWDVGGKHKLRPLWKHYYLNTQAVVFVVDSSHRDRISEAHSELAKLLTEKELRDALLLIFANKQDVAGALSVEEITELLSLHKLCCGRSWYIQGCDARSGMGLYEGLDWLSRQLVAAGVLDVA

Row | effect of a mutation on the interaction | Variant
10 | with no effect | A164T

Variants of: B4
Conditions: with mdfi_human MDFI

Row | effect of a mutation on the interaction | Variant
11 | with no effect | A164T

Variants of: B5
Conditions: with arl2_human ARL2, P36404
Chain of arl2_human ARL2, P36404 (P36404 whole entry): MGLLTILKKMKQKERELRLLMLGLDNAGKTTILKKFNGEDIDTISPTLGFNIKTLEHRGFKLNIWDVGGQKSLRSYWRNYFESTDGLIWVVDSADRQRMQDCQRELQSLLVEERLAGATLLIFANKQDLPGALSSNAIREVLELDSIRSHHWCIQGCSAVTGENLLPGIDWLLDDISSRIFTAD

Row | effect of a mutation on the interaction | Variant
12 | disrupting interaction strength | MDALEGESFALSFSSASDAEFDAVVGYLEDIIMDDEFQLLQRNFRDKYYLEFEDTEENKLIYTPIFNEYISLVEKYIEEQLLQRIPEFNMAAFTTTLQHHKDEVAGDIFDMLLTFTDFLAFKEMFLDYRAEKEGRGLDLSSGLVVTSLCKSSSLPASQNNLRH [M45R]
13 | disrupting interaction strength | MDALEGESFALSFSSASDAEFDAVVGYLEDIIMDDEFQLLQRNFMDKYYLEFEDTEENKLIYTPIFNEYISLVEKYIEEQLLQRIPKFNMAAFTTTLQHHKDEVAGDIFDMLLTFTDFLAFKEMFLDYRAEKEGRGLDLSSGLVVTSLCKSSSLPASQNNLRH [E87K]
